According to a protein production outcome set (Wang et al. 2014):

Test: label from the status in PepcDB records

Sequence | protein production
MSKSLGFKVSVSFVNIFALPFFFVLLYGSGFVGAKLGLPHSTPLSFLSLRFMAAGLILLIIAKLIGNQLPNWREAIHISVAGSLTVCLFSVGVFVSIDMGLSPAVSALIVALQPILVALFARKLVNEQLNLAQWFGLLFGFLGVIVVVIDSIETTSFSWVAIAMSVLALFGVTFGSLYQKRYCADMEIFYGGAIQSLVSGLICLALLPFFESFKVVWTGEFIISLVYMVVGVSLGALSLLYIMIQRGEVSRVASVFYLVPVSAAVSAYLLFGETIESTTLFGASIIALGIFLTNRKSQNNMVVSMNK | failed
TIPEGLRAVVFDFDGTILDTETREFHHWQELYREHGRELALSDWQRGVGTWDAFDPWAGLPEQVQADRENVRARLHDTIVSDIAGQDLRPGVRAVLEGVKAAGLRLALATSSDREWVTRWMRQHNLLDLFEAVATRDDVRRVKPDPELYLLAAARLGLRPEECLAVEDSFNGATAAVAAGMRLVVVPNDVTRTQPFPAEWRRLEDGYAGGLAGLL | failed
MIAVISMSGHVWSQQVPLWSIIIRTIHLIGLTLWLGSLVYLICYAIKVKINQLTSVRRMLLKVNIIAVFMLVFTGILMAIDETNTLTLWNNVSAWSIYLVIKIAGIITMMLLGFYQTMRALRQRQQVHRFALMTELLIGMILIFAGIMMSK | failed
MDTLDGLKTVVAVVETNSFTAASDRLGISKALVSKYVGEVENQLGIRLFNRTTRQLALTDSGRRYYEEAIILLEQFSAMVDNVTGEQTAPRGLLRISAPVTFGEMRLAPLLPKFIALYPDLTVELVLTNGAIDMLEEGIDVRLRIGGVDDSNMIARHLTNFPLVLSASPNYAQTQGLPTTPEQLGEHHCIIDSNFRIGKQWPFISPKGRAETINVQSGLAVNSPQAVREIAIADGGIAMTPNFIVEDALADGRLLRVMPEYTTLEFGLFAIYPHRKYVARKVRCFIDFVLEQFSKK | failed
MKSKFLTMKLILGALVLSFSCACSSSNSEEAMPQTAIGRQLVESGMANDVTLDNESVVRDGIKLNELAFKTFGESQHIFVATIDLNELTFTPATKDDKNVPATGPESSAPLPIHAFAAEANGKTVWLGVNGDYYADNPRRVMGLFYKDGVCINSQYFEGHDEVLYQLKNGETYVGQADEALAHEANLLHALGGYGLLVKDGVVQNFYEEMGDLQNTHPRTSVGLSQDRKTMYVFVVDGRRKDSFFALGLTLPHLATMMKAVGCYNAINLDGGGSTTLIIRKVNDGGKPTFPILNTPADDRVPRKVTNSMLIIEKK | failed
MKNLVVVDHPLIKHKLTIMRDKNTGPKEFRELLREITLLLAYEATRHLKCEEVEVETPITKTIGYRINDKDIVVVPILRAGLVMADGILELLPNASVGHIGIYRDPETLQAVEYYAKLPPLNDDKEVFLLDPMLATGVSSIKAIEILKENGAKKITLVALIAAPEGVEAVEKKYEDVKIYVAALDERLNDHGYIIPGLGDAGDRLFRTK | not failed
MSGSLRDSAIDHFNKTISLMQKRQNKEALEELEKAEEAAKQAKANDILIHTVNLRGQLMLTLGALDEVLRICGFASNFFADILLKDPENEFFQQSFQMNLNNLGTTGNFYHNTGRFPQAKKAYETGLGITLKLLQSSPQDDFLQNYTGTTLNNLGNLLSDMGRIEDAKNRYEKALEMREKLLEKDPENVAYQSYVGGTLNNLGNLLKNMGRIEDAKNRYEKALEMREKLLEKDPENVAYQSYVAMTLNNLGNLLKNMGRIEDAKNKYEKALEMREKLLEKDPENVAYQSDVAMTLNNLGTLLSDLGKIEDAKNRYEKALEIYEKLLENDPENVAYQSYVAMALNNLGNLLKNMGRIEDAKNRYEKALEMREKLLENDPENVAYQSDVAMTLNNLGTLLSDMGRIEDAKNRYEKALEIYEKLLEKDPENIAYQSDIGGTLNNLGTLLSDMGRIEDAKNRYEKALEIYEKLLEKDPENIAYQSEVGGTLNNLGTLLSDMGRIEDAKNRYEKALEIYEKLLEKDPENIAYQSEVGTMLNNLGNLLSDMGRIEDAKNRYKKALEIYEKLLEKDPENIAYQSYVGGTLNNLGNLLSDMGRIEDAKNRYKKALEIYEKLLEKDPENVAYQSYVGTMLNNLGTLLSDMGRIEDAKNRYKKALEIYEKLLEKDPENVAYQSYVGGTLNNLGNLLSDMGRIEDAKNRYKKALGIYEKLLEKDPGNLAYHSEVNTIQCKVKKVKGSGRC | failed
MWDETVAGPKPEHGLGRLRNKITTQPLDIKGVGEGSSSKTVAAVAGSPGTPTTPGSARKENVWRSVFHPGSNIATRGMGTNLFDKPSHPNSPTVYDWLYSDDTRSKHR | failed
MKWIMKLRWAILAFWLAAAVVLMFIAPPMADLVREKGELKLPDGYPSSLATEMQKKHNPDDKGSAYIAVYTADHKLTGTELNDIQKSLDSIEKDKDELHVTNVLSSFNQPELKDKFLAKDGKTMVASLTVDDTDASVKSIRNALDKKMDVKGVDTYLTGNKLIQEDVVQGSEDGLHKTEGITVVFILVVLFLVFRSAVAPFIPLITVGISYLVAQSTVAFLIDIFNFPVSTYTQIFMVCIMFGIGTDYCILLMSRFKEEMGAGLNPREAVHATYRTAGKTVIYSGVAVLVAFTSLYFVQFDLYRSAVAVGVGIVVLLAALYTLVPFFMSTLGTHLFWPLNKNISHKENKIWGAAGKFTFARPWIALLIVAAITLPPILLHTGTESFNSLDEISDKYPSKKGFEIVSDSFGAGQVAPTQIFIENDDNMRTTDYIAQIEKISDDLSHLKGIDMVMSASRPAGKRVDDIYIKNQAGQVNDGVGQATDGVGEVKKGLDSASSELKKSEPALDKAVAGVGDLQKGTVATQEGINQLQTALAQIQKGIESGATGAGDLKQGVAEAKSQLATLQNGEAQIQAGYAEIQKNLQNVADQLKGFENPSSQAIDTSKLEEQFKKIGASFQAFAAAHPEVRNDPRFQKLAADIQGLETAGNELKTSAGQQMAALQAKMKELNQGIQQLATAMNQLNEQSKQISDGLSAFSTGLGQIETGLDQLEKGLNQAAVGQGQVVSKMPEVSNALTQIAAGQGALKDGFAGISGQMGQLTDGLTSGADGLGKVESGLNTANGLIDDWSKVPYASSGIYVPDALLKNADFQKVLDQYISSDGKLATINVILTKNPYSNEAMDSIDDINDQLAASMKGTKLENAKIGIGGMTSANYDTRDMSTADYHLVLVIVLASVFVTLVIVLRSLVMPIYLIASLVLTYFAALGFAEIIFMRILGYSGLTWATPFFGFVVLVALGIDYSIFLMSRFNEYNGLSVRDRMIKAMKNMGGVIFSAVIILGGTFAAMMPAGVLSLLEIATVVLIGLVLYAVVILPLFVPVMVKLFGRGNWWPFITRKGDHQENVPPKK | failed
MSGVTSEPIAMDATRFQHTPYYCEENVYLLCKTLCENGVAEATCSDLFVVFISNEKKQVPLWHQKASTRADGVVLWDYHVICVQRKKESDSEPLVWDLDSTLPFPSPLASYVTETIQPSFQLFAEYQRFFRIVHAPLFFKHFASDRRHMKEPDGSWTAQPPPYEPIVAQDGILHNLSEYIAMSGADTLSSLDPETVTAAISQKLGVVVSHTQLQDLFTKLP | failed
MNFPISTIRIGGWVVVAKNPDDIVAKFYFAKKKLIWEFLFGEPETNTLRLKRKIEIQWNDVSSFEESISSRDETGILKIELKKRPTFFIETNPQAGKHTQWKQLDHDFTGDHASNYRRHTLHFPPGVLQKNLEKLVTDSFWSKLYEVPFPVHESRYFDSGFENNSSRNSHSHTVGFNVNNGPQHHFSQGIGGVGVGEGNFSMANGGWQRNSYSPVNSLNYNTANEFFGMQATPPSSQVVNEHYNTQNDFTGSQFGYHMNQDEIQKILESQAYAVPDTQTKLMSSAMNNVPKYPQAGSCLESMLFWYEHRRRFQQ | failed
MALVSADSRIAELLTELHQLIKQTQEERSRSEHNLVNIQKTHERMQTENKISPYYRTKLRGLYTTAKADAEAECNILRKALDKIAEIKSLLEERRIAAKIAGLYNDSEPPRKTMRRGVLMTLLQQSAMTLPLWIGKPGDKPPPLCGAIPASGDYVARPGDKVAARVKAVDGDEQWILAEVVSYSHATNKYEVDDIDEEGKERHTLSRRRVIPLPQWKANPETDPEALFQKEQLVLALYPQTTCFYRALIHAPPQRPQDDYSVLFEDTSYADGYSPPLNVAQRYVVACKEPKKK | failed
MNAKLEVNGELVKESYVYLLSRYLVLRQENFDTKEDKIPYNTLKHNSVAPADANFVNPNFDVVYSEAWIAVDDDNAVILEVPEIKNRYYTVQLLDGWGEVVTNINERNYPDHPYGKFAFVKKGTNPSVPSDAVKIELPSEKVKVLLRVEQKDDPEGAVKLQKAFKFDAPDNIKIKEPLEIPHFTNADFLLEEIYSNLEELLATYPDKMPKAAEFQDKARQVAAYIELGDEQKAEVRNLIVKEAIPYFTDGAKGFGTQKGGWSVTYVAGAFENDILARAIINYGGIWANSIQEALYFIGQQGTDGELLSGDKVYKIHFPKDQLPNGLAEAFWSVTLYGVPDYHVIPNKLNKFSINDYTGPKTNEDGSLSLYIAAEKPADVDPGNWLPSKAGKGFSLNFRLYVPKKEVLEGKVFLPPLEVL | failed
MTEGGRVSNTSRVTRRTGLRTAAAVAAALPLLSASPASASRNRGRRLDVMTFNLRFASASEPHSWAVRRPVMRELLRRERPHVIGTQEGLYQQVRDIEADLGPHYDWIGTGRAGGSRDEFMAVFYDTRRLAPLEYDHFWLSDTPDVIGSNTWGGGSIRMVTRVRFRDLADGDRPFHFLNTHLDNASQYARARAAALIADRIAGLDRSQPLVVTGDFNAAAHKNAVYETMLGAGLVDTWDTAAERGKLYGTFHGYKPLVPDGDRIDWILASPGVAAHCASINAFSSNGQFPSDHLPVQASLRLA | failed
MSKGTLFTIAVTPKIPPRLARLEDLANDLWYSWDRATRSLFSRLDPSLWGAVGHNPKAFLKRVDETLLLKAAEDQVFLANYNSIVSAYDYYHSETLWNGIDASLNPSDKIAYFCFEFGFHESFPIYSGGLGILAGDHCKAASDLRLPLIGIGLLYRQGYFFQTIDNQGNQQVIYADSDFSDLPVAPVLREDGSEVRIKVELLQRPVAIKVWRAKIGHVSLYLLDTDLPENSPGDRDITHQLYGGDRVMRIEQEIVLGVGGIRALREMGIEPTIWHINEGHAAFMMLERIRGHVQQGLDFPAALEAVAASTVFTTHTAVPAGHDHFSDDMMNAYFEPFYRDLKITREDFLALGRVPGSDDFNMTDLAIRASRYQNGVSKIHGNVSARICKDVWPQIEPEENPMSYITNGVHVPTFLAQEWADLFDRYLGYEWRNNMCDTEYWSRIDTIPDHLFWSVRQTLKSQMFYGIRARLTTQNARNHGSEAHLDRLLRFTDPINPNILTLGFGRRFATYKRATLLFEDLDWLRRIMLDQEHPVMIVFAGKAHPADVPGQDLIRRVSEIARMPEFEGQILLVEDYDLRLARRLVAGVDVWINSPVYPLEASGTSGMKAGINGTINLSVLDGWWGEGYDGKNGWAIKPGPENMDAVRRDKEESKDFYETLQDHVVPLYYNRDKLGYSSGWVKMAKNSMKSLLPRYNATRMITEYTMKFYLPAKKQGALYAADDFSNARKIAAWKAFVREAWPGVTIRRLDKPFSQISFGEAVDFRVAVRLNGLHPEDVVVELLICRRLKKTTLCSFKHVRFQFRGIEEESAEHLFELDHTPDLCGKLDYYIRVYPYHALLTHPFEMGMMVWL | failed
MAIPGNMWIYDDGGALIKGGCDVADREFSIEFKGFHHNLSIPTDHATGKPTGTRQHSPMIIVKEFDYSSPYLYKAVATGQNLKSAEIKWYKISDAGQEVEYFNMLLEGVRIVSISPTMASPEDKNNNHLESVELRYEKITWKHCDGNIIFTDAWNERQTA | not failed
MFKKLLHSLFAGLTFMAAVAAVPAHAQEADAQTTVKTAVDDVLATIKGDSDLRSGNMQKVFQLVDQKIVPRADFKRTTQIAMGRFWSQATPEQQQQIQDGFKTLLVRTYAGALANVRNQTVSYKPFRAAADDTDVVVRSTVNNNGEPVALDYRMEKSANGWKVYDINISGLWLSETYKNQFAEVISKRGGVSGLVQFLDERNAQLAKGPAKLEHHHHHH | not failed
QSYSGGIRLDTLFIDEGFGSLDPESLDLAIQTLVDLQQTGRMIGVISHVSELKEQMALRIDVEPSRFGSTVSVKSQMLISK | failed
MPKNKGKGGKNRKRGKNEADDEKRELIFKEDGQEYAQVLRMLGNGRCEAMCIDGTKRLCHIRGKMHKKVWIAAGDIVLVGLRDYQDDKADVILKYMSDEARLLKAYGELPENTRLNEGIVGDLEDDDDNNDDDYVEFEDEDIDRI | failed
